Values of other authors as cited in article PMC3711752.
pKd: −log10 of the molar value.

Target: EGF receptor (Homo sapiens) (UniProt P00533)

EGF, sequence (P01133 971-1023): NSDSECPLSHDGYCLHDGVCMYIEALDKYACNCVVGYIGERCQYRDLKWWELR

- pKd: 8.52
Substance: EGF (from UniProt P01133)
